{"source": "patent US20240376180A1", "about": "(DEUTSCHES ZENTRUM FUR NEURODEGENERATIVE ERKRANKUNGEN E V …, published 2024)", "key": {"[1]": {"target": "SARS-CoV-2 spike on S-pseudotyped MLV virions (SARS-CoV-2, UniProt P0DTC2 14-1255)", "assay": "cell-based or functional assay"}, "[2]": {"target": "SARS-CoV spike on S-pseudotyped MLV virions (SARS-CoV)", "assay": "cell-based or functional assay"}, "[3]": {"target": "T1, Spike protein of authentic SARS-CoV-2 (Munich isolate 984) (SARS-CoV-2, UniProt P0DTC2 14-1273)", "assay": "cell-based or functional assay", "parameters": "IC90 Neutralizing Assay: unit not given beside the values"}, "[4]": {"target": "T1, Spike protein of authentic SARS-CoV-2 …", "assay": "cell-based or functional assay"}, "[5]": {"target": "beta-2 microglobulin (Homo sapiens (Human), UniProt P61769 21-119)", "sequence (P61769 21-119 limits assumed)": "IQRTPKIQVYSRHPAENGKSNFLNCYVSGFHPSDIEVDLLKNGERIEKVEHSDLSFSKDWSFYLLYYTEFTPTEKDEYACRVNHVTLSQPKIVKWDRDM", "assay": "routine laboratory ELISA"}, "[6]": {"target": "SARS-CoV-2 S protein-RBD-mFc (SARS-CoV-2, UniProt P0DTC2 319-537)"}, "[7]": {"target": "T2, Fc fusion protein of the RBD-SD1 region of HCoV-HKU1 (HCoV-HKU1, UniProt Q5MQD0 310-677)", "T2 construct": "domain: RBD-SD1 region", "T2 sequence": "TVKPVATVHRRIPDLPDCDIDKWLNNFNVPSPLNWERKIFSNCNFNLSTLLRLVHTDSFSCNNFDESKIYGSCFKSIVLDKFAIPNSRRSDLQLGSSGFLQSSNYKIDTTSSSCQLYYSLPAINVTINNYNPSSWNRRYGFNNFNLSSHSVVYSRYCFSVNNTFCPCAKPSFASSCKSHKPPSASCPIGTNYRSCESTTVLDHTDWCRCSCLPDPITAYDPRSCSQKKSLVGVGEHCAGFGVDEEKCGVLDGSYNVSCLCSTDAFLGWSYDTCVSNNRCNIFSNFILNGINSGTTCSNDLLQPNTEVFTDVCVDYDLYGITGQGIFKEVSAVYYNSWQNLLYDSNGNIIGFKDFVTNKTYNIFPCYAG", "assay": "ELISA on captured RBD-SD1-Fc"}, "[8]": {"target": "T3, Fc fusion protein of the RBD-SD1 region of HCoV-OC43 (HCoV-OC43, UniProt P36334 318-675)", "T3 construct": "domain: RBD-SD1 region", "T3 sequence": "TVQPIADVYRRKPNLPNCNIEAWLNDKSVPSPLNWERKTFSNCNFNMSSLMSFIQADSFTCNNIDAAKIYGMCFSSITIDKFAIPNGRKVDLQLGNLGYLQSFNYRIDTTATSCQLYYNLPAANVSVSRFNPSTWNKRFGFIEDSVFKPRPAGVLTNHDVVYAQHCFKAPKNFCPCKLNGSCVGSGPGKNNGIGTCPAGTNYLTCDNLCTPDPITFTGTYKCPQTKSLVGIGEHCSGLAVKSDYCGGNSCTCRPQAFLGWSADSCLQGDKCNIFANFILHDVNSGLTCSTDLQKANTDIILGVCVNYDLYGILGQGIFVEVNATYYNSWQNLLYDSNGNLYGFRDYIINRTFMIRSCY", "assay": "ELISA on captured RBD-SD1-Fc"}, "[9]": {"target": "Fc fusion protein of the RBD-SD1 region of SARS-CoV (SARS-CoV, UniProt P59594 306-577)", "assay": "ELISA on captured RBD-SD1-Fc"}, "[10]": {"target": "T4, Fc fusion protein of the RBD-SD1 region of MERS-CoV (MERS-CoV, UniProt K9N5Q8 367-655)", "T4 sequence": "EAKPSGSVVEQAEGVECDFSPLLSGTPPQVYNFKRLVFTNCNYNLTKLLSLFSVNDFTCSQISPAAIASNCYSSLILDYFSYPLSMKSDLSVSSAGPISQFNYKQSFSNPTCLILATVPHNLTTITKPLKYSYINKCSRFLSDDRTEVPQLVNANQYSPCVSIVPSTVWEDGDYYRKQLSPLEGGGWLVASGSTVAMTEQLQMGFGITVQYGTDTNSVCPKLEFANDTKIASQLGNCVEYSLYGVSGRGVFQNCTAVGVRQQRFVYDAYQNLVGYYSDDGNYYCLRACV", "assay": "ELISA on captured RBD-SD1-Fc"}}, "data": [{"binder": "HK CV38-142 (antibody, V domains shown) VH: EVQLVQSGAEVKKPGESLKISCQGSGYSFTSYWIGWVRQMPGKGLEWMGIIYPGESDTRYSSSFQGHVTISADKSISTAYLQWSSLKASDTAMYYCARIRGVYSSGWIGGDYWGQGTLVTVSS VL: not shown", "values": [{"measurement": "pseudovirus neutralization assay, potency (IC50)", "setting": "[1]", "value": 3.5, "unit": "µg/mL"}, {"measurement": "pseudovirus neutralization assay, potency (IC50)", "setting": "[2]", "value": 1.4, "unit": "µg/mL"}, {"measurement": "IC50 Neutralizing Assay", "setting": "[3]", "value": "~50", "unit": "ng/mL"}, {"measurement": "IC50 (PRNT, authentic SARS-CoV-2)", "setting": "[4]", "value": 23.2, "unit": "ng/mL"}, {"measurement": "binding result", "setting": "[5]", "value": "no binding (tested: 50 µg/ml)"}]}, {"binder": "HL CV07-250 (antibody, V domains shown) VH: QVQLVQSEAEVKEPGASVEVSCKASGYNFTNFAISWVRQAPGQGLEWMGWISGYNGDTNSAQKFLGRVTMTTDTSTTTAYMELRSLRSDDTAVYYCAGSDNYGFPYNGMDVWGQGTTVTVSS VL: QSALTQPPSASGSPGQSVTISCTGTSSDLGAYHFVTWYQHYPGKAPKVMIYGVRKRPSGVPDRFSGSKSGNTASLTVSGLQDEDEADYYCSSYAGNNDFVFGGGTKLTVLS", "values": [{"measurement": "Kd", "setting": "[6]", "value": 0.0564, "unit": "nM"}, {"measurement": "IC90 Neutralizing Assay", "setting": "[3]", "value": "> 500"}, {"measurement": "binding result", "setting": "[7]", "value": "no binding (tested: 1 µg/ml)"}, {"measurement": "binding result", "setting": "[8]", "value": "no binding (tested: 1 µg/ml)"}, {"measurement": "binding result", "setting": "[9]", "value": "no binding (tested: 1 µg/ml)"}, {"measurement": "binding result", "setting": "[10]", "value": "no binding (tested: 1 µg/ml)"}, {"measurement": "IC50 (PRNT, authentic SARS-CoV-2)", "setting": "[4]", "value": 3.5, "unit": "ng/mL"}, {"measurement": "binding result", "setting": "[5]", "value": "no binding (tested: 50 µg/ml)"}]}, {"binder": "HL CV07-283 (antibody, V domains shown) VH: QVQLVQSGAEVKKPGASAKVSCKASGYTFTGYYIHWVRQAPGQGLEWMGLINPISGGTNYAQKFQDRVTMTRDTSISTAYMELSRLRSDDTAVYYCVRGPFYYDSSGPLGGMDVWGQGTTVTVSS VL: QSALTQPASVSGSPGQSITISCTGTSGDVGGYNYVSWYQQHPGKAPKLMIYEVSNRPSGVSNRFSGSKSGNTASLTISGLQAEDEADYYCSSYTSSSTYVFGTGTKVTVLG", "values": [{"measurement": "Kd", "setting": "[6]", "value": 0.0475, "unit": "nM"}, {"measurement": "IC50 Neutralizing Assay", "setting": "[3]", "value": "~50", "unit": "ng/mL"}, {"measurement": "IC90 Neutralizing Assay", "setting": "[3]", "value": "> 500"}, {"measurement": "binding result", "setting": "[7]", "value": "no binding (tested: 1 µg/ml)"}, {"measurement": "binding result", "setting": "[8]", "value": "no binding (tested: 1 µg/ml)"}, {"measurement": "binding result", "setting": "[9]", "value": "no binding (tested: 1 µg/ml)"}, {"measurement": "binding result", "setting": "[10]", "value": "no binding (tested: 1 µg/ml)"}, {"measurement": "IC50 (PRNT, authentic SARS-CoV-2)", "setting": "[4]", "value": 16.9, "unit": "ng/mL"}, {"measurement": "binding result", "setting": "[5]", "value": "no binding (tested: 50 µg/ml)"}]}, {"binder": "HL CV07-315 (antibody, V domains shown) VH: EVQLVESGGGLVQPGRSLRLSCAASGFTFDDYAMHWVRQAPGKGLEWVSGISWNSGSIGYADSVKGRFTISRDNAKNSLYLQMNSLRAEDTALYYCAKDFLWDLHPPRYYGMDVWGQGTTVTVSS VL: QSVLTRPPSVSAAPGQKVTISCSGSSSNIGNNYVSWYQQLPGTAPKLLIYENNKRPSGIPDRFSGSKSGTSATLGITGLQTGDEADYYCGTWDSSLNGVFGGGTKLTVLG", "values": [{"measurement": "Kd", "setting": "[6]", "value": 0.0112, "unit": "nM"}, {"measurement": "IC50 Neutralizing Assay", "setting": "[3]", "value": "~50", "unit": "ng/mL"}, {"measurement": "binding result", "setting": "[7]", "value": "no binding (tested: 1 µg/ml)"}, {"measurement": "binding result", "setting": "[8]", "value": "no binding (tested: 1 µg/ml)"}, {"measurement": "binding result", "setting": "[9]", "value": "no binding (tested: 1 µg/ml)"}, {"measurement": "binding result", "setting": "[10]", "value": "no binding (tested: 1 µg/ml)"}, {"measurement": "IC50 (PRNT, authentic SARS-CoV-2)", "setting": "[4]", "value": 24.9, "unit": "ng/mL"}, {"measurement": "binding result", "setting": "[5]", "value": "no binding (tested: 50 µg/ml)"}]}, {"binder": "HK CV07-287 (antibody, V domains shown) VH: QVQLVQSGPEVKKPGTSVKVSCKASGFTFTSSAMQWVRQARGQRLEWIGWIVVGSGNTNYAQKFQERVTITRDMSTSTAYMELSSLRSEDTAVYYCAAPYCSSTNCYDAFDIWGQGTMVTVSS VL: not shown", "values": [{"measurement": "Kd", "setting": "[6]", "value": 0.16, "unit": "nM"}, {"measurement": "IC90 Neutralizing Assay", "setting": "[3]", "value": "> 500"}, {"measurement": "binding result", "setting": "[7]", "value": "no binding (tested: 1 µg/ml)"}, {"measurement": "binding result", "setting": "[8]", "value": "no binding (tested: 1 µg/ml)"}, {"measurement": "binding result", "setting": "[9]", "value": "no binding (tested: 1 µg/ml)"}, {"measurement": "binding result", "setting": "[10]", "value": "no binding (tested: 1 µg/ml)"}, {"measurement": "IC50 (PRNT, authentic SARS-CoV-2)", "setting": "[4]", "value": 41.7, "unit": "ng/mL"}, {"measurement": "binding result", "setting": "[5]", "value": "no binding (tested: 50 µg/ml)"}]}]}
